Data: patent US8466107B2, “Fibrin-binding peptides and conjugates thereof” (Bracco Imaging SpA, priority 2006, dated 2013)
Numbered stars: 1 amine (or outer) side, 2 acyl side, 3 side chain; on linkers, the order of the positions; unused ones are H or OH. Bridge positions count the residues as written; N and C are the ends. Square brackets hold non-standard residues; d marks the D form. Side chains are listed from the residue outwards. Ends that are not written are not given here. * marks the point of attachment. DSPE = distearoyl phosphatidylethanolamine, CCCCCCCCCCCCCCCCCC(=O)OC[C@H](COP(=O)(O)OCCN*)OC(=O)CCCCCCCCCCCCCCCCC; DPPE = CCCCCCCCCCCCCCCC(=O)OC[C@H](COP(=O)(O)OCCN*)OC(=O)CCCCCCCCCCCCCCC; Tuda = 3,6,9-trioxaundecane-1,11-dioyl, O=C(COCCOCCOCC(=O)[*:3])[*:2]; Glutaryl = O=C(CCCC(=O)[*:2])[*:1]; PG4 = not defined here; AEEA = NCCOCCOCC(=O)O

Key:
fibrin = molecular target: T1, fibrin (Homo sapiens, UniProt P02671+P02675+P02679); test: Dynamic binding test of targeted microvesicles on fibrin-coated coverslips in a parallel-plate flow chamber; details: shear rate about 114 s^-1, 10 min, 50% human plasma
T1 sequence (P02671 36-629 limits assumed): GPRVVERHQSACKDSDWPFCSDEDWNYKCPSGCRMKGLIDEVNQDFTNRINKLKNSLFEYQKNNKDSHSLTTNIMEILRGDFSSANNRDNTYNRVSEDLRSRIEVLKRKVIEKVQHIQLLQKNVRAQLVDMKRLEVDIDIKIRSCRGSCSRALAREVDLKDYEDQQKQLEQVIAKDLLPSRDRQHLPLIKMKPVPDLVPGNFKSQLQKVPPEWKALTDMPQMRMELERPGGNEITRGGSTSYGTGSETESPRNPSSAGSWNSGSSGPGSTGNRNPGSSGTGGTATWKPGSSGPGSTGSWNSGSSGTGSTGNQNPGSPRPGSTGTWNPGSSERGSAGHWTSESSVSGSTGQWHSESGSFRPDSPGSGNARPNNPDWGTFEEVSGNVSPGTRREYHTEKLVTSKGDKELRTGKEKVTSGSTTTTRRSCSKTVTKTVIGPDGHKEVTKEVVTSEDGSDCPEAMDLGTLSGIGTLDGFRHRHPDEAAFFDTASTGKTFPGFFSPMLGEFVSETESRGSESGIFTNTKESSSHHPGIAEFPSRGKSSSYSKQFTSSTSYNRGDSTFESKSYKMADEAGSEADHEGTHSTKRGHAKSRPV
T1 sequence (P02675 45-491 limits assumed): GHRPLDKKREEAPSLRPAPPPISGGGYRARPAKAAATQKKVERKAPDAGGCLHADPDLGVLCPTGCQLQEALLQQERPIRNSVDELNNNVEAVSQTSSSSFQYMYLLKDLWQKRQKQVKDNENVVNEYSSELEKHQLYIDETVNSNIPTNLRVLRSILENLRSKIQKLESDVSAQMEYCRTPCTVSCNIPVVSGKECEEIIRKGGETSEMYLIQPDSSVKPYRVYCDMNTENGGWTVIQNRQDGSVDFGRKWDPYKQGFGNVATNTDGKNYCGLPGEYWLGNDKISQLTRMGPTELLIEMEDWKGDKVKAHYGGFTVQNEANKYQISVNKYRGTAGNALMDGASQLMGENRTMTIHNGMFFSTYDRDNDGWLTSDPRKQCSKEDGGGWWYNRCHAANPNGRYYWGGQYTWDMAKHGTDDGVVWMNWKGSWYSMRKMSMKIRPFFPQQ
T1 sequence (P02679 27-437 isoform P02679-2 limits assumed): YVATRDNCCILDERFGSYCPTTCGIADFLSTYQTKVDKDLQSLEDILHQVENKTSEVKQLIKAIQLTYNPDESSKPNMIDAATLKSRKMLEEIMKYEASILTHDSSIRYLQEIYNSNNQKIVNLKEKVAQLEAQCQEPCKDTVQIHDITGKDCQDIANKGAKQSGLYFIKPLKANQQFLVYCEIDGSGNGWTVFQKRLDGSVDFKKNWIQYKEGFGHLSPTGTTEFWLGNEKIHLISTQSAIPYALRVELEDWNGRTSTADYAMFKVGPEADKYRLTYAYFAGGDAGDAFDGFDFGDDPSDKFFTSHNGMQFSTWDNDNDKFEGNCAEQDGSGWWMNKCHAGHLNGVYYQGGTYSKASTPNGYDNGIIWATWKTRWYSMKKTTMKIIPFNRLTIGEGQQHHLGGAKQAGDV
Experimental: Glass coverslips (40 mm in diameter, Bioptechs Inc., Butler, Pa., USA) were coated with fibrin according the following methodology.
Five mL of a solution of BSA 1% w/v in PBS pH 7.4 were added into a 60 mm Petri Dish containing one coverslip, and incubated at 37° C. for 15 min. Then the coverslip was washed three times with 5 ml of Tween 80/PBS (0.1%, v:v). Twenty five μL of human thrombin solution at 5 U/mL were added per mL of human fibrinogen solution (0.5 mg/mL in 50 mM sodium phosphate, NaCl 280 mM, pH 7.4) and delicately mixed. Five mL of this solution were immediately distributed in each Petri dish. The coverslips were incubated for one hour at 37° C. and then dried overnight at 45° C.
Binding studies of targeted microvesicles were carried out using a parallel-plate flow chamber (FCS2, Bioptech Inc., Butler, Pa., USA) with a chamber gasket of 0.25 mm in thickness, with a customized adapter for upside-down chamber inversion. The coated coverslip was inserted as a plate of the flow chamber. Gas-filled Microvesicles (5×10^6 bubbles/mL in 50% human plasma in PBS) were drawn through the flow chamber using an adjustable infusion pump (Auto Syringe® AS50 Infusion Pump, Baxter, Deerfield, Ill., USA) with a 60 mL syringe (Terumo). The pump flow rate was adjusted to 1 mL/min to obtain the desired shear rate of about 114 s^−1. After 10 minutes, the flow was stopped and pictures were taken randomly on different positions on the coverslip (on surfaces of about 0.025 mm^2) using a 40× objective and a CCD monochrome camera (F-View II, Soft Imaging Systems, Germany) connected to an inverted Olympus IX 50 microscope. The number of microvesicles on each picture was determined, averaged with respect to the total number of pictures and the obtained value was then divided by ten (to obtain the “slope”, i.e. the average amount of bound microvesicles per minute).
For each preparation of Examples 17-20, the binding assay was repeated four times thus obtaining an average value of the slope. The slope represents the microvesicle binding rate on the target substrate. […] A higher slope indicates a better capacity of microvesicles to bind to the target under flow conditions.

[1] = system: neuroblastoma (Neuro-2a) tumor; test: In vivo MRI test of fibrin imaging in neuroblastoma tumor mouse model; details: mice with neuroblastoma tumor; 25 μmol/kg iv.; T1 weighted MRI at 2T, 4 h post injection
Source text: Three groups of 5 mice each, inoculated with 2·10^6 neuroblastoma cells with PBS, were formed and tested as follows: • Group a: Reference compound 2, • Group b: Chelate Complex 1 • Group c: ProHance® (see Protocol)
At day-10 post tumor cells inoculation, at least 4 mice per group with similar tumor size (5-10 mm in diameter) were selected for the in vivo MRI tests. After pre-contrast MRI acquisition (T1 and T2 high resolution 2D spin-echo and 3D gradient echo images), the test compounds were administered (25 μmol/kg iv.) and MRI was performed at 4 h and 24 h post injection. Maximum signal intensity was measured in the entire tumor area and in each post contrast image covering the whole tumor and the signal was compared to the pre-contrast images. At the end of MRI exams, all animals were sacrificed and the tumor, blood, liver, kidneys and femoral bone were removed and prepared for Gd assay by ICP-AES. […]
The mean signal intensity was measured within a region of interest (ROI) including the entire tumor, drawn by an operator on each MR image using dedicated software (MR Research Systems Ltd, Surrey UK). Signal intensity enhancement (Enh %) was determined as: Enh%=100*(SIx(t)−SI0)/SI0 […]

[2] = microvesicles with DSPC/DSPG envelope, Examples 19C-19E (0.45 μmoles lipopeptide, 0.45 μmoles DSPE-PEG1000)
[3] = microvesicles with DPPE/DPPG envelope containing the lipopeptide (Examples 18A-18C), slope = average bound microvesicles per minute
[4] = microvesicles with DSPC/DPPG envelope containing the lipopeptide (Examples 17A-17B, molar ratio 47.5/47.5/5), slope = average bound microvesicles per minute
[5] = microvesicles with DSPC/stearate envelope containing the lipopeptide (Examples 20A-20D)
[6] = microvesicles with DSPC/DSPA envelope, 0.26 μmoles lipopeptide (Examples 20E, 20G, 20H)

Compound | Slope (fibrin; [2]) | Slope (fibrin; [3]) | Slope (fibrin; [5]) | Slope (fibrin; [6]) | also measured
Ac-SGSGSGSGWQPC*PWESWTFC*WDPGGGK(DSPE-PG4-Glut)-NH2 (Ac-SGSGSGSGWQPCPWESWTFCWDPGGGK([Glutaryl-PG4-DSPE])-NH2; disulfide 12-20; reading uncertain; also: printed as Ac-SGSGSGSGWQPC*PWESWTFC*WDPGGGK(DSPE-PG4-Glut)-NH2) [Seq024-PL1] | 6.2 | – | – | – | –
Ac-WQPC*PWESWTFC*WDPGGGK(DPPE-PG4-Glut)-NH2 (Ac-WQPCPWESWTFCWDPGGGK([Glutaryl-PG4-DPPE])-NH2; disulfide 4-12; reading uncertain) [Seq000-PL1, reference compound] | – | 4.8 | 1.6 | – | Slope (fibrin; [4]): 6.44; Slope (fibrin; microvesicles with DSPC/DSPG envelope, Example 19A (0.63 μmole lipopeptide, 0.28 μmole DSPE-PEG1000)): 4.4; Slope (fibrin; microvesicles with DSPC/DSPG envelope, Example 19B (0.36 μmole lipopeptide, 1.44 μmoles DSPE-PEG1000)): 4.9
Ac-GWQPC*PWESWTFC*WDPGGGK(DSPE-PG4-Glut)-NH2 (Ac-GWQPCPWESWTFCWDPGGGK([Glutaryl-PG4-DSPE])-NH2; disulfide 5-13; reading uncertain; also: printed as Ac-GWQPC*PWESWTFC*WDPGGGK(DSPE-PG4-Glut)-NH2) [Seq016-PL1] | 11.5 | – | 8.4 | – | –
CC(O)CN1CCN(CC(=O)[O-])CCN(CC(=O)[O-])CCN(CC(=O)[O-])CC1.[Gd+3] (stereo not shown) [ProHance®, reference compound] | – | – | – | – | tumor signal enhancement [1]: no signal enhancement was observed inside the tumors
Ac-WQPCPAESWTFCWDPGAGSGK(DPPE-Pro9-Glut-Ttda-Dga)-NH2 (Ac-WQPCPAESWTFCWDPGAGSGK-NH2; disulfide 4-12 (inferred); not fully specified (residue 21)) [Seq005-PL5] | – | – | – | 6.0 | –
Ac-WQPC*PAESWTFC*WDPGGGK(DSPE-PG4-Glut)-NH2 (Ac-WQPCPAESWTFCWDPGGGK([Glutaryl-PG4-DSPE])-NH2; disulfide 4-12; reading uncertain; also: printed as Ac-WQPC*PAESWTFC*WDPGGGK(DSPE-PG4-Glut)-NH2) [Seq005-PL1] | – | 7.2 | 6.1 | – | Slope (fibrin; [4]): 8.54
Ac-WQPCPAESWTFCWDPGSAGSK(DPPE-Pro9-Glut-Ttda-Dga)-NH2 (Ac-WQPCPAESWTFCWDPGSAGSK-NH2; disulfide 4-12 (inferred); not fully specified (residue 21)) [Seq005-PL4] | – | – | – | 6.4 | Slope (fibrin; microvesicles with DSPC/DSPA envelope, 0.795 μmoles lipopeptide (Example 20F)): 8.0
RWQPC*PWESWTFC*WDPGGGK(DSPE-PG4-Glut)-NH2 (RWQPCPWESWTFCWDPGGGK([Glutaryl-PG4-DSPE])-NH2; disulfide 5-13; reading uncertain; also: printed as RWQPC*PWESWTFC*WDPGGGK(DSPE-PG4-Glut)-NH2) [Seq023-PL1] | 8.5 | – | – | – | –
Ac-SGSGJWQPC*PWESWTFC*WDPGGGK(DSPE-PG4-Glut)-NH2 (Ac-SGSG[AEEA]WQPCPWESWTFCWDPGGGK-NH2; disulfide 9-17; not fully specified (residue 24); printed as Ac-SGSGJWQPC*PWESWTFC*WDPGGGK(DSPE-PG4-Glut)-NH2) [Seq017-PL1] | – | 8.9 | 3.1 | – | –
Seq000-PL2: comparative lipopeptide prepared from Seq000(Adoa-Adoa) and DPPE (Ac-WQPCPWESWTFCWDPGGGK([AEEA-AEEA-Tuda-DPPE])-NH2; disulfide 4-12) [reference compound] | – | – | – | 4.6 | –
